Reference: patent publication US20150344570A1 (published 2015)

Columns and labels:
[1] = target: T1, FcγRIa extracellular domain with C-terminal His tag (human, UniProt P12314 16-292); assay: SPR (Biacore), antibody captured via antigen peptide, FcγR as analyte; relative binding
T1 construct: extracellular domain; also called FcgRI; 1a
Description: (§1) The heterodimerized antibodies He Abs in which one of the H chains was introduced with an alteration were assayed for their binding activities to each activating FcγR and inhibitory FcγR according to the method described in Example 4. […] The activating FcγRs in FIGS. 26, 27, 28, and 29 are FcγRIa, FcγRIIa (R), FcγRIIa (H), and FcγRIIIa, respectively.
(§2) Analysis of interaction between objective antibody and the FcγR was carried out using Biacore T100 (GE Healthcare). HBS-EP+ (GE Healthcare) was used as the running buffer, and the measurement temperature was set to 25° C. Chips produced by immobilizing the antigen peptide by the amine coupling method to a Series S Sencor Chip CM5 (GE Healthcare), or alternatively, chips produced by allowing preliminarily biotinylated antigen peptides to interact with and immobilize onto a Series S Sensor Chip SA (certified) (GE Healthcare) were used. Antibodies of interest were captured onto an antigen peptide-immobilized chip, and allowed to interact to each FcγR diluted with running buffer. To regenerate and repeatedly use the chip, the antibodies captured on the chip were washed off by reacting 10 mM glycine-HCl, pH 1.5.

[2] = target: T2, FcγRIIb extracellular domain with C-terminal His tag (human, UniProt P31994 43-217); assay: as above
T2 construct: extracellular domain; also called FcgRIIb; 2b
T2 sequence (looked up): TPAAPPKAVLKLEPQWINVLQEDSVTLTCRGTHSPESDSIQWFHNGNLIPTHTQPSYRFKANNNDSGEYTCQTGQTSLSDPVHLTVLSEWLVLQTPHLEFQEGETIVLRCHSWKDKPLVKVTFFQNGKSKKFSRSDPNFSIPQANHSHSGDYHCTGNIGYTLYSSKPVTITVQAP
Description: as §1, §2

[3] = target: T1, FcγRIa extracellular domain with …; assay: SPR (Biacore); He/Con_1a divided by He/Con_2b (FcγRIa binding over FcγRIIb binding)
Description: as §1, §2

T1 sequence (P12314 16-292): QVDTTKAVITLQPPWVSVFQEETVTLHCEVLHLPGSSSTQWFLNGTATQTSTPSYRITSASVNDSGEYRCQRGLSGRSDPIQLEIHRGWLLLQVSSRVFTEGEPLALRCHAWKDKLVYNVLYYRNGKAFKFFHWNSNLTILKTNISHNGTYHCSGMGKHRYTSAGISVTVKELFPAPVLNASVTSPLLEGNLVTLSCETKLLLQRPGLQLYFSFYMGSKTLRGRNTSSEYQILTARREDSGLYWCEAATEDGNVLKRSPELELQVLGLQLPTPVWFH

Binder	He/Con_1a [1]	He/Con_2b [2]	He_1a/2b (Ia/IIb) [3] [ratio]
GpH7-A5/GpH7-B3 variant Y296_07I/GpL16-k0 (antibody, human IgG1, kappa, Heterodimerized anti-glypican-3 IgG1; alteration only in the GpH7-B3 chain, EU numbering; also called He Ab) heavy 1: not shown heavy 2: not shown light: DIVMTQSPLSLPVTPGEPASISCQASESLVHSNRNTYLHWYLQKPGQSPQLLIYKVSNRFSGVPDRFSGSGSGTDFTLKISRVEAEDVGVYYCSQNTHVPPTFGQGTKVEIERTVAAPSVFIFPPSDEQLKSGTASVVCLLNNFYPREAKVQWKVDNALQSGNSQESVTEQDSKDSTYSLSSTLTLSKADYEKHKVYACEVTHQGLSSPVTKSFNRGEC	104 % of GpH7-A5/GpH7-B3/GpL16-k0 (=100)	84.3 % of GpH7-A5/GpH7-B3/GpL16-k0 (=100)	1.24
GpH7-A5/GpH7-B3 variant Y296_19Q/GpL16-k0 (antibody, human IgG1, kappa, Heterodimerized anti-glypican-3 IgG1; alteration only in the GpH7-B3 chain, EU numbering; also called He Ab) heavy 1: not shown heavy 2: not shown light: DIVMTQSPLSLPVTPGEPASISCQASESLVHSNRNTYLHWYLQKPGQSPQLLIYKVSNRFSGVPDRFSGSGSGTDFTLKISRVEAEDVGVYYCSQNTHVPPTFGQGTKVEIERTVAAPSVFIFPPSDEQLKSGTASVVCLLNNFYPREAKVQWKVDNALQSGNSQESVTEQDSKDSTYSLSSTLTLSKADYEKHKVYACEVTHQGLSSPVTKSFNRGEC	112 % of GpH7-A5/GpH7-B3/GpL16-k0 (=100)	89.3 % of GpH7-A5/GpH7-B3/GpL16-k0 (=100)	1.25
GpH7-A5/GpH7-B3 variant Y296_11K/GpL16-k0 (antibody, human IgG1, kappa, Heterodimerized anti-glypican-3 IgG1; alteration only in the GpH7-B3 chain, EU numbering; also called He Ab) heavy 1: not shown heavy 2: not shown light: DIVMTQSPLSLPVTPGEPASISCQASESLVHSNRNTYLHWYLQKPGQSPQLLIYKVSNRFSGVPDRFSGSGSGTDFTLKISRVEAEDVGVYYCSQNTHVPPTFGQGTKVEIERTVAAPSVFIFPPSDEQLKSGTASVVCLLNNFYPREAKVQWKVDNALQSGNSQESVTEQDSKDSTYSLSSTLTLSKADYEKHKVYACEVTHQGLSSPVTKSFNRGEC	105 % of GpH7-A5/GpH7-B3/GpL16-k0 (=100)	72.8 % of GpH7-A5/GpH7-B3/GpL16-k0 (=100)	1.44
GpH7-A5/GpH7-B3 variant Y296_13S/GpL16-k0 (antibody, human IgG1, kappa, Heterodimerized anti-glypican-3 IgG1; alteration only in the GpH7-B3 chain, EU numbering; also called He Ab) heavy 1: not shown heavy 2: not shown light: DIVMTQSPLSLPVTPGEPASISCQASESLVHSNRNTYLHWYLQKPGQSPQLLIYKVSNRFSGVPDRFSGSGSGTDFTLKISRVEAEDVGVYYCSQNTHVPPTFGQGTKVEIERTVAAPSVFIFPPSDEQLKSGTASVVCLLNNFYPREAKVQWKVDNALQSGNSQESVTEQDSKDSTYSLSSTLTLSKADYEKHKVYACEVTHQGLSSPVTKSFNRGEC	105 % of GpH7-A5/GpH7-B3/GpL16-k0 (=100)	86.3 % of GpH7-A5/GpH7-B3/GpL16-k0 (=100)	1.22
